Assay results taken from patent publication US20210115113A1 (CITY OF HOPE, published 2021).

Key:
[1] = biological target: T1, EBV gp350 expressed on the surface of stably transfected CHO cells (Epstein-Barr virus, UniProt P03200 1-907); test: cell competition (flow), unlabeled 125 µg/ml; competitor: biotinylated m72A1 1 µg/ml
T1 construct: also called native gp350; gp350 expressing CHO cells
T1 sequence: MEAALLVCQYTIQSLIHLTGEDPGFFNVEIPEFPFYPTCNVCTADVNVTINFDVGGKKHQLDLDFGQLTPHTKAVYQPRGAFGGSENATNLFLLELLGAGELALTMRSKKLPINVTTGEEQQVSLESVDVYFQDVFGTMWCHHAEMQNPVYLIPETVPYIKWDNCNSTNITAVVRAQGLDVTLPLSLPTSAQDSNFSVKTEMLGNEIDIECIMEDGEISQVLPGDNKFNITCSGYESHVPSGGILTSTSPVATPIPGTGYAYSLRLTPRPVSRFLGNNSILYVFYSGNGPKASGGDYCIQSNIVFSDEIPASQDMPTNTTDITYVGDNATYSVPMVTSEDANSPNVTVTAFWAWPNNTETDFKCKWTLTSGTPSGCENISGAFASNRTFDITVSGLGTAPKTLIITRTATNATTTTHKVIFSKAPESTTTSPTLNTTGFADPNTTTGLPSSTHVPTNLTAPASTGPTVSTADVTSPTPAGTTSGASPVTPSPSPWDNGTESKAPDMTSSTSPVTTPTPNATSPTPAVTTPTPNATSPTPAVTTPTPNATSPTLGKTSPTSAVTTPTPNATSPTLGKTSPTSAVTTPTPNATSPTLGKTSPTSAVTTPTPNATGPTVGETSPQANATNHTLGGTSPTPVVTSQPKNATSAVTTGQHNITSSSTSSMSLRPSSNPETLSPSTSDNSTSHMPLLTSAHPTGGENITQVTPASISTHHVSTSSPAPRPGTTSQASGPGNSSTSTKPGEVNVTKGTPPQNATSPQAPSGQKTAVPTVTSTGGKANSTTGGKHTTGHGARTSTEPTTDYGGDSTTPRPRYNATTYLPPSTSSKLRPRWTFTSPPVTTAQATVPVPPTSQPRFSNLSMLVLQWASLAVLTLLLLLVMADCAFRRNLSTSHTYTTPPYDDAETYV

[2] = biological target: T1, EBV gp350 expressed on the surface of …; test: cell competition (flow), unlabeled 250 µg/ml; competitor: biotinylated m72A1 1 µg/ml
[3] = biological target: T1, EBV gp350 expressed on the surface of …; test: cell competition (flow), unlabeled 500 µg/ml; competitor: biotinylated m72A1 1 µg/ml
[4] = biological target: T1, EBV gp350 expressed on the surface of …; test: cell competition (flow), unlabeled 67.5 µg/ml; competitor: biotinylated m72A1 1 µg/ml
[5] = biological target: T1, EBV gp350 expressed on the surface of …; test: cross-competition on gp350-CHO cells (flow), unlabeled 500 µg/ml; competitor: biotinylated HB1
[6] = biological target: T1, EBV gp350 expressed on the surface of …; test: cross-competition on gp350-CHO cells (flow), unlabeled 500 µg/ml; competitor: biotinylated HB5
[7] = biological target: T1, EBV gp350 expressed on the surface of …; test: cross-competition on gp350-CHO cells (flow), unlabeled 500 µg/ml; competitor: biotinylated 54A1
[8] = biological target: T1, EBV gp350 expressed on the surface of …; test: cross-competition on gp350-CHO cells (flow), unlabeled 500 µg/ml; competitor: biotinylated HB11
[9] = biological target: T1, EBV gp350 expressed on the surface of …; test: cross-competition on gp350-CHO cells (flow), unlabeled 500 µg/ml; competitor: biotinylated HB17
[10] = biological target: T1, EBV gp350 expressed on the surface of …; test: cross-competition on gp350-CHO cells (flow), unlabeled 500 µg/ml; competitor: biotinylated HB20
[11] = biological target: T1, EBV gp350 expressed on the surface of …; test: cross-competition on gp350-CHO cells (flow), unlabeled 500 µg/ml; competitor: biotinylated h72A1
[12] = biological target: T1, EBV gp350 expressed on the surface of …; test: cross-competition on gp350-CHO cells (flow), unlabeled 500 µg/ml; competitor: biotinylated m72A1
[13] = biological target: T2, EBV gp350 on EBV-eGFP virions (Epstein-Barr virus, UniProt P03200 1-907); test: cell-based or functional assay
T2 sequence: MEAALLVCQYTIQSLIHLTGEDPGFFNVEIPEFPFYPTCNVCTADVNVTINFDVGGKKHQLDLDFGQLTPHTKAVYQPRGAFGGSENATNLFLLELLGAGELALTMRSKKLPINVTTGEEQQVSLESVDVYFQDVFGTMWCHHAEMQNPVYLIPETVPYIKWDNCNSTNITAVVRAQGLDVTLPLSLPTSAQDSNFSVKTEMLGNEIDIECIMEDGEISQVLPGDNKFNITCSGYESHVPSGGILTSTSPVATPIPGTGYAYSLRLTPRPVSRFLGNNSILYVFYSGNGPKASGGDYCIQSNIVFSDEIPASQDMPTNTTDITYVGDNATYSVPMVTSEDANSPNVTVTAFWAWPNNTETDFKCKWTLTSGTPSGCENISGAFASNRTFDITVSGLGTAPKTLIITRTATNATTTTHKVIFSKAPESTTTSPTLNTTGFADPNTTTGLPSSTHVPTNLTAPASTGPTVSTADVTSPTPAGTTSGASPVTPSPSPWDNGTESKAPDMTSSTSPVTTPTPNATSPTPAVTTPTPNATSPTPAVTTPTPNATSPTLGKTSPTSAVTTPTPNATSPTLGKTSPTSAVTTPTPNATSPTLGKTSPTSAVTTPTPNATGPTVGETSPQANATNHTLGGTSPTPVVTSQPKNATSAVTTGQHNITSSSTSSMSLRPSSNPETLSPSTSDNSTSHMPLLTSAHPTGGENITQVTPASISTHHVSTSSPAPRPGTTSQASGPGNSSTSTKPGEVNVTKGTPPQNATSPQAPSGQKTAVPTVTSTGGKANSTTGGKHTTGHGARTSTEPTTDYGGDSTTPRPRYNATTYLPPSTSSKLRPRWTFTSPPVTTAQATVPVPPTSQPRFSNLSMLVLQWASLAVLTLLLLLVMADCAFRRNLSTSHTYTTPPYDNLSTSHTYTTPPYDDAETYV

B1: HB5 (antibody, V domains shown)
VH: AELVRPGASVKISCKAFGYTFTNHNINWVKQRPGQGLDWIGYINPYNDYTSYNQKFKGKATLTVDKSSNTAYMELSSLTSEDSAVYYCARSEGWLRRGAWFAYWGQGTLVTVSA
VL: AILSVSPGERVSFSCRASQSIGTSIHWYQQRTNDSPRLLIKYASESISGIPPRFSGSGSGTDFTLSINSVESEDIADYHCQQSNSWPMLTFGAGTKLELKR
notes: also called mHB5
% inhibition of biotinylated nAbs [1]: 92% | % inhibition of biotinylated nAbs [2]: 93% | % inhibition of biotinylated nAbs [3]: 95% | % inhibition of biotinylated nAbs [4]: 94% | % inhibition of biotinylated nAbs [5]: 92% | % inhibition of biotinylated nAbs [6]: 98% | % inhibition of biotinylated nAbs [7]: 13% | % inhibition of biotinylated nAbs [8]: 93% | % inhibition of biotinylated nAbs [9]: 9% | % inhibition of biotinylated nAbs [10]: 73% | % inhibition of biotinylated nAbs [11]: 97% | % inhibition of biotinylated nAbs [12]: 97%

B2: murine 72A1 (m72A1), anti-EBV gp350 neutralizing antibody from hybridoma HB168 (antibody, V domains shown)
VH: EVQLQQSGPELVKPGTSMKISCKASGSSFTDYTMNWMKQSHGKNLEWIGLINPYNGGTRYNQKFKGKATLTLDKSSSTAYMEVLSLTSEDSAVYYCAGGLRRVNWFAYWGQGTLVSVSA
VL: QAVLTQESALTTSPGETVTLTCRSSTGAVTTSNYANWVQEKPDHLFTGLIGGTNNRVPGVPARFSGSLIGDKAALTITGAQTEDEAIYFCVLWHSNHWVFGGGTKLTVL
notes: also called nAb-72A1; mouse 72A1
% inhibition of biotinylated nAbs [1]: 94% | % inhibition of biotinylated nAbs [2]: 93% | % inhibition of biotinylated nAbs [3]: 91% | % inhibition of biotinylated nAbs [4]: 97% | % inhibition of biotinylated nAbs [5]: 82% | % inhibition of biotinylated nAbs [6]: 97% | % inhibition of biotinylated nAbs [7]: 1% | % inhibition of biotinylated nAbs [8]: 90% | % inhibition of biotinylated nAbs [9]: 37% | % inhibition of biotinylated nAbs [10]: 31% | % inhibition of biotinylated nAbs [11]: 98% | % inhibition of biotinylated nAbs [12]: 98%

B3: HB11 (antibody, V domains shown)
VH: PSLVKPSQTLSLTCSVTGDSITSGFWNWIRKFPGNKLEYMGYISYSGSTYYNPSLKSRISITRDTSKNQYYLQLNSVTTEDTATYYCARGNGGNYDWYFDVWGAGTTVTVSS
VL: AIMSASLGEKVTMSCRASSSVNFMNWYQQKSDDSPKLLIYYISNLAPGVPARFSGSGSGNSYSLTISGMEGEDAATYYCQQFTSSPSWTFGGGTKLEIKR
% neutralization of EBV-eGFP infection of Raji cells at 100 µg/ml [13]: 90% | % inhibition of biotinylated nAbs [1]: 89% | % inhibition of biotinylated nAbs [2]: 95% | % inhibition of biotinylated nAbs [3]: 95% | % inhibition of biotinylated nAbs [4]: 87% | % inhibition of biotinylated nAbs [5]: 93% | % inhibition of biotinylated nAbs [6]: 96% | % inhibition of biotinylated nAbs [7]: 9% | % inhibition of biotinylated nAbs [8]: 96% | % inhibition of biotinylated nAbs [9]: 17% | % inhibition of biotinylated nAbs [10]: 3% | % inhibition of biotinylated nAbs [11]: 97% | % inhibition of biotinylated nAbs [12]: 97%

B4: HB17 (antibody, V domains shown)
VH: AELVIPGASVKVSCKASGYTFTSYWIHWVKQWPGQGLEWIGEINPNNGHTNYNEKFKSKATLTVDKSSSTAYMQLSSLTSEDSAVYYCARNLFYYSRPDYWGQGTSVTVSS
VL: SSLSASLGDRVTISCRASQDIGNYLNWYQQKPDGTIKLLIYYTSRLHSGVPSRFSGSGSGTDYSLTISNLEEEDIATYFCQQGNTLPPTFGGGTKLEIKR
% inhibition of biotinylated nAbs [1]: 6% | % inhibition of biotinylated nAbs [2]: 32% | % inhibition of biotinylated nAbs [3]: 32% | % inhibition of biotinylated nAbs [4]: 0% | % inhibition of biotinylated nAbs [5]: 23% | % inhibition of biotinylated nAbs [6]: 32% | % inhibition of biotinylated nAbs [7]: 0% | % inhibition of biotinylated nAbs [8]: 11% | % inhibition of biotinylated nAbs [9]: 86% | % inhibition of biotinylated nAbs [10]: 17% | % inhibition of biotinylated nAbs [11]: 16% | % inhibition of biotinylated nAbs [12]: 24%

B5: HB1 (antibody, V domains shown)
VH: PGLVAPSQSLSITCTVSGFLLTTYGVHWVRQPPGKGLEWLGVIWAGGSTNYNSALMSRLSINKDISKSQVFLKMNSLQTDDTAMYYCTRDRGYGYLYAMDYWGQGTSVTVSS
VL: KFMSTSVGDRVSVTCKASQNVGTNVAWYQQKPGQSPKALIYSTSSRYTGVPDRFAGSGSGTDYTLTISNVQSEDLAEYFCQQYNTYPYTFGGGTRLDIKR
% neutralization of EBV-eGFP infection of Raji cells at 100 µg/ml [13]: 90% | % inhibition of biotinylated nAbs [1]: 81% | % inhibition of biotinylated nAbs [2]: 89% | % inhibition of biotinylated nAbs [3]: 91% | % inhibition of biotinylated nAbs [4]: 81% | % inhibition of biotinylated nAbs [5]: 92% | % inhibition of biotinylated nAbs [6]: 97% | % inhibition of biotinylated nAbs [7]: 4% | % inhibition of biotinylated nAbs [8]: 96% | % inhibition of biotinylated nAbs [9]: 16% | % inhibition of biotinylated nAbs [10]: 61% | % inhibition of biotinylated nAbs [11]: 95% | % inhibition of biotinylated nAbs [12]: 98%
